Source: patent publication US20120172293A1 (Takeda / Millennium, published 2012)
Non-standard residues stand in square brackets, D forms with d. No end group written: not given here. 4Amb = NCc1ccc(C(=O)O)cc1

Legend:
[1] = molecular target: T1, human Y2 receptor (human), P49146; assay: cell-based or functional assay
T1 chain: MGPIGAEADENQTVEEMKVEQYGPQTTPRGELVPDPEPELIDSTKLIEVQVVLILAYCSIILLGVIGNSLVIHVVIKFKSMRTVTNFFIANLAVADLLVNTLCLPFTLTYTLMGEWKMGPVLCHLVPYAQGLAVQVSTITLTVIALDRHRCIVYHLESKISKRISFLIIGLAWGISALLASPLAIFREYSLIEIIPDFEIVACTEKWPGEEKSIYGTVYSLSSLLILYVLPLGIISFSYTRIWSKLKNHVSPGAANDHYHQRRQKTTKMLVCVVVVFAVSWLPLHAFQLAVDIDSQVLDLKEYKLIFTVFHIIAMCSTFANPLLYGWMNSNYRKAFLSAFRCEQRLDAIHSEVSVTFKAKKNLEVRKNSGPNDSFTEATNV

[2] = molecular target: T1, human Y2 receptor (human), P49146; assay: RBA: [125I]-PYY displacement, hY2R/CHO membranes

[4Amb]RAYINLVTRQRY (ends and bridges not checked) [4-Aminomethylbenzoyl-[Ala26, Ile28, VAl31]-PYY(25-36)]
GBA EC50 Ratio (vs PYY(3-36)), [35S]GTPγS [1]: 4 | IC50 Ratio (vs PYY(3-36)) [2]: 7.2
